Results reported in the DeepSol protein solubility set.

Assay: soluble on expression in E. coli; label from the status in PepcDB or PDB records

Row | Sequence | soluble on expression in E. coli
1 | MAHHHHHHMSLRLCVCTATANGEYYMSMFNKHLSSFFKTITLGSTVDDFKQDKDSKDSIILYVEGPVGHDAIKYLCDDYHLPKEQRRVLWIYSLTAGVDVYRLGELVKELQDIPFANARGCYSSVLAEHVMYSMLYFYRQTWRSLASRAEHKWDPFLMVELRGKKVGIIGYGDIGQASAKLLSAFGMEVTGVKRSASTKEVDEYGVRLVHGDAERERVLRESDFVVNILPGTEETKRFFNKELFSMMKPSAVYISIGRGITQNEDDLACALRDGVIRGASVDVFEREPLPAESPLWDISDDKLLLTAHSADRTANLVPDSVRRFIGLVNEYAKTKRLDTYLVDPVRGY | not soluble
2 | MTEWTGEERYQRIEDVDTEYFKTLKQQVDQSKFRQQFHIQPETGLLNDPNGLIFYKGKYYVSHQWFPLGAVHGLKYWYNYTSDDLINFKAEGPILNPDTKYDSHGVYSGSAFEYNGHLYYMYTGNHRDNHWQRHASQMIARLKEDGSVEKFPKPVISQQPEGYTSHFRDPKVFKYDEKYYAIIGAQNNDQQGRLLLYNTEDIINWHYLGEINTELDDFGYMWECPDYFNVDNQDVILICPQGIEPKGDQFKNIYQSGYILGKFDIEKLTYEHENFVELDNGFDFYAPQTFLDEKGRRVLIGWMGLPEIEYPTDNEGWAHCLTTPRVLNVENGQLKQRPYPALEKLRHNKETALGYANKFTRKLHPYEGKQYELIIDILDNDATEVYFELRTSKTSSTLIAYNKRENKITLDRSDSGLLPTNVEGTTRSTILDTPLKQLQIFVDTSSIEIFCNDGERVLTSRIFPTEDALGIKTSTESGQVYLQFTKYDLKDEHK | not soluble
3 | MTYRVLDPNAQEGSPTEVLVRMYSHPQLRRLYADTEACYTTALADSITGEMRAAFERLRVSDPQMAIPRYVAFHVSGLQQSVVAVPDLVSVSIDKYIRPDYPVYLQFFSEYARQTMSPEYVVRDAVLGWICSERPLPRETVLTLRFQLEYWGDIYRLMKQVFPQASDEWLFGFTSDQLLWMKQNRKILLDNALKRGEMESSQPTVTDRYFKELPPDQLLPPEAPRLIGHWLGTNL | not soluble
4 | MGSDKIHHHHHHMKPSGSAICIETAAMTMRFGSFTALDAVSIKVQAGSFHALLGENGAGKSTLVKCIMGFYRQTSGQLLVEDREVEIASPRDAAALGLGMVYQHFTLVPSLTGAENLVISRNAVPAMINWRRERQALNDFMATMPFQIPLERPVRELSAGEKQKLEIIKQLYLGRRFLILDEPTSVLTPAEADDMLGLVRSMTERGALTVLMISHKFHEVRKFADAVSVLRRGKLVGSGRTADLTTQEMAAMMIGDVKLAELDSRLPVVEASPSILSIRGMKTRDRSGLKSIEVDDLKVRAGEIVGIAGISGNGQKELAEVLAGQRPAEAGDITVKDRPYTATRQETRAANVRFIPEEPLLNACAPRMSVAENLSFRDFDVDAKGKTRFWLNAKAMRETAGRLIADFKVKTASPASPIASLSGGNVQRAVLARELTGDVDLLVVSNPCFGLDFSAVAEIRARIMKARNNGSAVLLFSEDLDELMEMSDRIVVMSDGRLVYETPARGADIAVIGAHMAGHA | not soluble
5 | MSIRIDRQRCIGCGKCAEICPGNLIVIDEDKKAFVRDPRDCWGCAACVKECKFSAIRYFLGAEIGGNGTTMYVEKENDEIMYWYFEKPSGEKEMIVQNLKDNTTYLEHHHHHH | not soluble
6 | MGSDKIHHHHHHMTEITTLSQFLTTAKTQFQVYELGRRVQHIDMLAFHQIESLVTPYPYPIQGHAQFAVVFWNESQQHFIWFLKLPLDEQGLLSPAPRSQFIEMVLTALGQDPTQPLTDEQQDRLANNPFSFKPSQEKLSVFNALVRKQLGLSASIQYEFAMQYLSGQIAPSEWQHIGMQGLSDVCVRLGELDHEQHILASFDQAAIEVQIALCQCLEHLQLTEAIAMKIFSKFITAPNEYQAYYLRALASQTELSQQALLHLQQTDRLDANALISIAGRNWPILKQALSRSIYLEALALQPQAFFNQIFADIVAIPNLRNHLLGELRNPNRSVQLSQAIGGLFKAASK | not soluble
7 | MGSSHHHHHHSSGLVPRGSHMQQKLTSPDNNLVMTFQVDSKGAPTYELTYKNKVVIKPSTLGLELKKEDNTRTDFDWVDRRDLTKLDSKTNLYDGFEVKDTQTATFDETWQPVWGEEKEIRNHYNELAVTLYQPMNDRSIVIRFRLFNDGLGFRYEFPQQKSLNYFVIKEEHSQFGMNGDHIAFWIPGDYDTQEYDYTISRLSEIRGLMKEAITPNSSQTPFSQTGVQTALMMKTDDGLYINLHEAALVDYSCMHLNLDDKNMVFESWLTPDAKGDKGYMQTPCNTPWRTIIVSDDARNILASRITLNLNEPCKIADAASWVKPVKYIGVWWDMITGKGSWAYTDELTSVKLGETDYSKTKPNGKHSANTANVKRYIDFAAAHGFDAVLVEGWNEGWEDWFGNSKDYVFDFVTPYPDFDVKEIHRYAARKGIKMMMHHETSASVRNYERHMDKAYQFMADNGYNSVKSGYVGNIIPRGEHHYGQWMNNHYLYAVKKAADYKIMVNAHEATRPTGICRTYPNLIGNESARGTEYESFGGNKVYHTTILPFTRLVGGPMDYTPGIFETHCNKMNPANNSQVRSTIARQLALYVTMYSPLQMAADIPENYERFMDAFQFIKDVALDWDETNYLEAEPGEYITIARKAKDTDDWYVGCTAGENGHTSKLVFDFLTPGKQYIATVYADAKDADWKENPQAYTIKKGILTNKSKLNLHAANGGGYAISIKEVKDKSEAKGLKRL | soluble
8 | MSIEIKTNSVEPIRHTYGHIARRFGDKPATRYQEASYDIEAKTNFHYRPQWDSEHTLNDPTRTAIRMEDWCAVSDPRQFYYGAYVGNRAKMQESAETSFGFCEKRNLLTRLSEETQKQLLRLLVPLRHVELGANMNNAKIAGDATATTVSQMHIYTGMDRLGIGQYLSRIALMIDGSTGAALDESKAYWMDDEMWQPMRKLVEDTLVVDDWFELTLVQNILIDGMMYPLVYDKMDQWFESQGAEDVSMLTEFMRDWYKESLRWTNAMMKAVAGESETNRELLQKWIDHWEPQAYEALKPLAEASVGIDGLNEARAELSARLKKFELQSRGVSA | soluble
9 | LLVDKKVSVNDVDIGLISLQYLNIIANYTNKKAIEKITDYLVITSKILAKKADNLLNDHQEESVLEYDLATNNFRDKMIANLVEHKRYCDSLGEFEKLRVNRLAYFSKANEMEQFIKTANDQLVTVEDQLPNYISVLKLFHAMNKLLEMRLSSLLTNKNITIKELSVEQVQKELVLAIKQFNYQTVSLKRVLLKLN | not soluble
10 | MGSDKIHHHHHHATTLLVSCSNQQTQTKAITVSDTTLLSAEEFSQKIKKEPNALILDVRTPEEFSEAHIANATNVNWKDNFASGITEVNKNQPVLVYCLSGGRSASASDYLRKNGYTQVYELQGGLLKWQASNFEVVADTVTAAQDSGMTLQQFEALLVTDKYVLIDFYATWCGPCKMMEPALEDIAATMSDKVIVVRIDVDKNEELSKHFEVESLPTVQIYKNKKLVWEDIGYKTKKQLVSQLK | not soluble
11 | MFEKWIGLTLLLNSLAYPCQKVTISFKQYENLLHIHQKGCDNEVMCRTLISIALLESSLGLNNRREKSLKDTSYSMFHITLNTAKKFYPTYSKTLLKFKLLNDVGFAIQLAKQILKENFDYYKQKHPNKSVYQLVEMAIGAYNGGMKHNPNGAYVKKFRCIYSQVRYNE | not soluble
12 | MQGVLAGLPSGIPGIGLEIEGAVQHAPQPGRHSIRCSLKVNHRIDERAQYHLFCTSKSANTTCPKGPSRVLCRDIFDIFDYRNFSMPRANEIKKGMVLNYNGKLLLAKDIDIQSPTARGAATLYKMRFSDVRTGLKVEERFKGDDIVDTVTLTRRYVDFSYVDGNEYVFMDKEDYTPYTFTKDQIEEELLFMPEGGMPDMQVLTWDGQLLALELPQTVDLEIVETAPGIKGASASARNKPATLSTGLVIQVPEYLSPGEKIRIHIEERRYMGRAD | not soluble
13 | MSLETFTGIRYETAVERVANGGFTDLPRQIEWRKALAAFQSAPIFGHGWNSFAQQTFLINAEQHNIHDNLLSNLFTHSHNIVLQLLAEMEGHHHHHH | not soluble
14 | MTVTDRIFQNVAELSVPNFFITVEFSVMGNEMPEHIESFVLEKYQAILHGANGRKFVYTEGGWRLFFTFFPTDKVVDERYALKNKVQMKFHK | not soluble
15 | MAGYDVVVVGGGHAGLEAAWAAAALGVRVALVTVNPDRIGMMPCNPAVGGPGKSQLVAEVVALGGLMGRAADAAAIHTRVLNRSKGPAVQSLRVQVDRDLYALKAQEILAERPVEVLRGEVAALWVEGGRLLGVRTVDGRTLPAKAVVVAGGTFLSGVVWYGRKSRPAGRQGEPPARFLSQSLKAVGHTLRRFKTGTPPRIRADSVDFGRLEVVPPEVPPGSFTGNPGPHAARLPTWQTRTTERTHRLILENLHLSPLYAGDIQGIGPRYCPSIEDKVVRFADKESHLLFVEPDGLSTTEVYLQGFSSSLPPELQEEMVRSLPGFERAVIQRYAYAVEYDSLDPTELTRGLQSRFLPGLFSAGQVNGTSGYEEAAAQGLLAGLNAARFALGLPEVHLPRESGYIGVLVDDLVGRGTDEPYRMMTSRVELRLLCRADNADERLTPLAVAWGLRPREDLERVEAKYRRVAAELRRLEALRVEGVSGLQWLRRPENTYRALAERFPPPEPLSPEEAYQVEVRAKYAGYIERQERLREKMRDLEAFRIPEGMDFPKVPGLSREAAEKLSRHRPKSLAEAARIPGVRDSDLTALAVHLRRGA | not soluble
16 | MQKMDCQAIGYGYIIIPKALLKEQLIDCSPHEGEIEAFLKLLVKVNYSETKLTDHQRRTIVCKRGESLHSYRSWSAIFHWPTSRTYRFIQQLKTNGIIEIIPHNDTTALHIRVVNYENWTNISALLNEKKENTQKASNEKFRLFWDDYHNILQLPKENIAKAQRIWKKLSEKEQQLAIDHIEEYYYHQTNMKFTLHACSYLSNKAFLNEYEY | not soluble
17 | SNAQESRLDRILESGVLRVATTGDYKPFSYRTEEGGYAGFDVDMAQRLAESLGAKLVVVPTSWPNLMRDFADDRFDIAMSGISINLERQRQAYFSIPYLRDGKTPITLCSEEARFQTLEQIDQPGVTAIVNPGGTNEKFARANLKKARILVHPDNVTIFQQIVDGKADLMMTDAIEARLQSRLHPELCAVHPQQPFDFAEKAYLLPRDEAFKRYVDQWLHIAEQSGLLRQRMEHWLEYR | soluble
18 | MGSDKIHHHHHHMFPTFFGISSIHGGQMAHSVSQAYLHISPPQVIGCHDGTTFNSYTNDDSARRYNSKSANKAPPAGQAFGCHESTTFKRTQQVNTPLDVIHPNSNIPNLPPPAFGKCPYPPWQHLDAANTIFIFPPLTVTLITNSRRVSAAAYDSNAIESVMQGTLRKMRTRLDEQGLANYQLLVGDNEVELNPFIGSSIKLVHTGNIFCCNCGKKTKKSYSQGHCFVCMKKLASCDMCIMKPETCHFAEGTCREPEWGEANCFVPHYVYLSNTSGLKVGITRHTQLPTRWIDQGATQGLPILKVSSRQLSGLIEVELAKMIADKTNWRAMLKGNADPLPLKQHAEELLPQIEQHIHSLAMAHGEYAIERLNEEIVAIDYPVSEFPTKIASHNFDKDPVVSGTLLGIKGQYLIFDTGVINLRKFTAYEVSFEAE | not soluble
